Measured values as given in the supplement of paper PMC7877785.
± gives the uncertainty stated by the source.

Assay: self-splicing fitness, log relative to wild type (ln ratio); higher = more splicing; Tetrahymena group I intron in knt gene, E. coli kanamycin selection, DiMSum; sequences stand for … in CUCUCU…GGAGGGAAAAGUUAUCAGGCAUGCACCUGGUAGCUAGUCUUUAAACCAAUAGAUUGCAUCGGUUUAAAAGGCAAGACCGUCAAAUUGCGGGAAAGGGGUCAACAGCCGUUCAGUACCAAGUCUCAGGGGAAACUUUGAGAUGGCCUUGCAAAGGGUAUGGUAAUAAGCUGACGGACAUGGUCCUAACCACGCAGCCAAGUCCUAAGUCAACAGAUCUUCUGUUGAUAUGGAUGCAGUUCACAGACUAAAUGUCGGUCGGGGAAGAUGUAUUCUUCUCAUAAGAUAUAGUCGGACCUCUCCUUAAUGGGAGCUAGCGGAUGAAGUGAUGCAACACUGGAGCCGCUGGGAACUAAUUUGUAUGCGAAAGUAUAUUGAUUAGUUUUGGAGUACUCGUGGUCG
Outline: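 DiMSum derived fitness as the error-weighted combination of fold changes across replicates, kanamycin versus no kanamycin, normalised to wild type. E. coli BL21(DE3) held the library, which randomised all eight P1ex-region intron nucleotides within the knt kanamycin-resistance gene on pET-22b(+). Six replicate transformations grew overnight at 37°C or 30°C on LB agar with or without 25 μg/mL kanamycin, also containing 100 μg/mL carbenicillin, 50 μM IPTG and 0.2% rhamnose, and pooled colonies were amplicon-sequenced on an Illumina HiSeq 2500.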

| Sequence | self-splicing fitness (ln) (30 °C) | self-splicing fitness (ln) (37 °C) |
| --- | --- | --- |
| GCUUAGCAAUAUUACGGGUC | -3.24 ± 0.23 | -2.31 ± 0.28 |
| GCUUAGCAAUAUUACGGUCG | -1.78 ± 0.12 | -1.41 ± 0.16 |
| GCUUAGCAAUAUUACGGUGG | -2.24 ± 0.19 | -2.38 ± 0.28 |
| GCUUAGCAAUAUUACGGUUU | -1.4 ± 0.068 | -0.908 ± 0.074 |
| GCUUAGCAAUAUUACGUAAG | -2.18 ± 0.12 | -0.181 ± 0.17 |
| GCUUAGCAAUAUUACGUCUC | -0.196 ± 0.096 | 0.386 ± 0.1 |
| GCUUAGCAAUAUUACGUGCC | -3.64 ± 0.35 | -0.354 ± 0.14 |
| GGAAAGCAAUAUUACGACUG | -1.93 ± 0.15 | -0.134 ± 0.19 |
| GGAAAGCAAUAUUACGAUAG | -3.1 ± 0.34 | -1.16 ± 0.2 |
| GGAAAGCAAUAUUACGCAAA | -2.42 ± 0.28 | -1.05 ± 0.25 |
| GGAAAGCAAUAUUACGCAGG | -2.91 ± 0.15 | -2.71 ± 0.22 |
| GGAAAGCAAUAUUACGCCAG | – | -0.912 ± 0.35 |
| GGAAAGCAAUAUUACGCCCG | -0.767 ± 0.21 | -0.0766 ± 0.23 |
| GGAAAGCAAUAUUACGCGCG | -0.394 ± 0.08 | -0.275 ± 0.12 |
| GGAAAGCAAUAUUACGCGUG | -0.941 ± 0.054 | -0.486 ± 0.071 |
| GGAAAGCAAUAUUACGGCAU | -1.03 ± 0.13 | -0.672 ± 0.15 |
| GGAAAGCAAUAUUACGGGAC | -2.53 ± 0.1 | -1.18 ± 0.11 |
| GGAAAGCAAUAUUACGGGUU | -2.99 ± 0.13 | -0.727 ± 0.11 |
| GGAAAGCAAUAUUACGGUUG | – | -1.2 ± 0.26 |
| GGAAAGCAAUAUUACGGUUU | -1.02 ± 0.061 | -0.46 ± 0.082 |
| GGAAAGCAAUAUUACGUAGA | -0.977 ± 0.1 | -1.4 ± 0.17 |
| GGAAAGCAAUAUUACGUAUG | -2.27 ± 0.1 | -2.04 ± 0.15 |
| GGAAAGCAAUAUUACGUCGC | -0.897 ± 0.17 | -0.926 ± 0.2 |
| GGAAAGCAAUAUUACGUGGC | -2.85 ± 0.38 | -2.46 ± 0.34 |
| GGAAAGCAAUAUUACGUGGG | -3.72 ± 0.19 | -1.47 ± 0.11 |

| Sequence | self-splicing fitness (ln) (30 °C) | self-splicing fitness (ln) (37 °C) |
| --- | --- | --- |
| GGAAAGCAAUAUUACGUUCA | 0.00884 ± 0.082 | 0.0862 ± 0.13 |
| GGAAAGCAAUAUUACGUUCG | -0.612 ± 0.097 | -0.624 ± 0.14 |
| GGAAAGCAAUAUUACGUUCU | -3.94 ± 0.21 | -3.07 ± 0.23 |
| GGACAGCAAUAUUACGAAGG | -3.1 ± 0.24 | -2.38 ± 0.39 |
| GGACAGCAAUAUUACGACAU | -0.378 ± 0.012 | -0.0143 ± 0.032 |
| GGACAGCAAUAUUACGAGAA | -2.45 ± 0.36 | -1.54 ± 0.25 |
| GGACAGCAAUAUUACGAGAG | -3.81 ± 0.18 | -2.09 ± 0.11 |
| GGACAGCAAUAUUACGAGCA | -0.424 ± 0.47 | -0.637 ± 0.4 |
| GGACAGCAAUAUUACGAGCG | -0.482 ± 0.081 | 0.0554 ± 0.12 |
| GGACAGCAAUAUUACGAUGG | -2.41 ± 0.1 | -2.05 ± 0.13 |
| GGACAGCAAUAUUACGAUUG | -1.09 ± 0.12 | -1.15 ± 0.19 |
| GGACAGCAAUAUUACGCCAA | -0.506 ± 0.14 | -1.24 ± 0.23 |
| GGACAGCAAUAUUACGCCUA | -0.825 ± 0.11 | -0.478 ± 0.11 |
| GGACAGCAAUAUUACGCGAA | -1.07 ± 0.08 | -0.612 ± 0.094 |
| GGACAGCAAUAUUACGGACC | -1.35 ± 0.19 | -1.02 ± 0.23 |
| GGACAGCAAUAUUACGGCCG | -0.0795 ± 0.14 | -0.000523 ± 0.19 |
| GGACAGCAAUAUUACGGGCG | -0.664 ± 0.075 | -0.0669 ± 0.09 |
| GGACAGCAAUAUUACGGUCU | -3.84 ± 0.24 | -1.18 ± 0.2 |
| GGACAGCAAUAUUACGUCGG | -0.852 ± 0.099 | -0.674 ± 0.14 |
| GGACAGCAAUAUUACGUGAG | 0.177 ± 0.058 | -0.254 ± 0.062 |
| GGACAGCAAUAUUACGUGCG | -0.326 ± 0.064 | 0.365 ± 0.087 |
| GGACAGCAAUAUUACGUUCA | -0.478 ± 0.086 | -0.434 ± 0.1 |
| GGACAGCAAUAUUACGUUUC | -3.16 ± 0.28 | -1.82 ± 0.32 |
| GGAGAGCAAUAUUACGAGCA | -1.17 ± 0.35 | -1.86 ± 0.34 |
| GGAGAGCAAUAUUACGAGUC | -3.63 ± 0.35 | – |

| Sequence | self-splicing fitness (ln) (30 °C) | self-splicing fitness (ln) (37 °C) |
| --- | --- | --- |
| GGAGAGCAAUAUUACGAUAA | – | -0.957 ± 0.43 |
| GGAGAGCAAUAUUACGCAUC | -3.08 ± 0.28 | -2.85 ± 0.43 |
| GGAGAGCAAUAUUACGCGUA | -2.02 ± 0.37 | -1.42 ± 0.27 |
| GGAGAGCAAUAUUACGGAAG | -2.47 ± 0.32 | -0.843 ± 0.41 |
| GGAGAGCAAUAUUACGGCAU | -2.03 ± 0.22 | 0.206 ± 0.22 |
| GGAGAGCAAUAUUACGGCCG | -3.74 ± 0.42 | -2.16 ± 0.42 |
| GGAGAGCAAUAUUACGGGCA | -2.49 ± 0.24 | -1.22 ± 0.21 |
| GGAGAGCAAUAUUACGGUGA | -2.27 ± 0.2 | -1.46 ± 0.21 |
| GGAGAGCAAUAUUACGUACU | -1.1 ± 0.12 | -1.16 ± 0.14 |
| GGAGAGCAAUAUUACGUCAA | -2.93 ± 0.31 | -3.54 ± 0.46 |
| GGAGAGCAAUAUUACGUCCA | -2.78 ± 0.2 | -0.872 ± 0.18 |
| GGAGAGCAAUAUUACGUGAA | -0.689 ± 0.2 | -2.2 ± 0.4 |
| GGAGAGCAAUAUUACGUUAU | -3.27 ± 0.23 | -2.98 ± 0.32 |
| GGAUAGCAAUAUUACGAAGU | -2.68 ± 0.29 | -2.02 ± 0.25 |
| GGAUAGCAAUAUUACGAAUG | -2.73 ± 0.18 | -1.87 ± 0.2 |
| GGAUAGCAAUAUUACGACCA | -0.97 ± 0.092 | -0.392 ± 0.13 |
| GGAUAGCAAUAUUACGACGC | -0.274 ± 0.11 | 0.262 ± 0.12 |
| GGAUAGCAAUAUUACGAGGU | -2.75 ± 0.29 | -2.7 ± 0.18 |
| GGAUAGCAAUAUUACGAGUA | -2.54 ± 0.48 | -1.14 ± 0.16 |
| GGAUAGCAAUAUUACGAUAA | -1.51 ± 0.19 | -1.46 ± 0.2 |
| GGAUAGCAAUAUUACGCACA | -0.523 ± 0.12 | 0.321 ± 0.14 |
| GGAUAGCAAUAUUACGCCGG | – | -1.28 ± 0.42 |
| GGAUAGCAAUAUUACGCGAG | -1.38 ± 0.15 | -1.16 ± 0.14 |
| GGAUAGCAAUAUUACGCGUU | -1.98 ± 0.42 | -2.06 ± 0.47 |
| GGAUAGCAAUAUUACGCUCA | 0.156 ± 0.15 | -0.278 ± 0.15 |

| Sequence | self-splicing fitness (ln) (30 °C) | self-splicing fitness (ln) (37 °C) |
| --- | --- | --- |
| GGAUAGCAAUAUUACGGAGA | -2.79 ± 0.26 | -2.33 ± 0.3 |
| GGAUAGCAAUAUUACGGCAA | -0.818 ± 0.19 | -0.178 ± 0.2 |
| GGAUAGCAAUAUUACGGCUG | -0.385 ± 0.14 | -0.733 ± 0.18 |
| GGAUAGCAAUAUUACGGGAC | -2.5 ± 0.24 | -2.15 ± 0.17 |
| GGAUAGCAAUAUUACGGGAU | -3.03 ± 0.27 | -2.39 ± 0.21 |
| GGAUAGCAAUAUUACGUAAC | -1.66 ± 0.15 | -0.538 ± 0.16 |
| GGAUAGCAAUAUUACGUAGA | -1.01 ± 0.17 | -1.4 ± 0.21 |
| GGAUAGCAAUAUUACGUAUU | -3.05 ± 0.2 | -2.21 ± 0.28 |
| GGAUAGCAAUAUUACGUCAU | -2.02 ± 0.11 | -0.395 ± 0.12 |
| GGCAAGCAAUAUUACGAAGA | -2.24 ± 0.18 | -0.478 ± 0.12 |
| GGCAAGCAAUAUUACGACCU | -0.895 ± 0.12 | -0.997 ± 0.12 |
| GGCAAGCAAUAUUACGCAAA | -0.878 ± 0.092 | -1.2 ± 0.097 |
| GGCAAGCAAUAUUACGCACC | -2.15 ± 0.32 | -2.31 ± 0.24 |
| GGCAAGCAAUAUUACGCAGC | – | -2.27 ± 0.28 |
| GGCAAGCAAUAUUACGCAGG | -2.1 ± 0.12 | -2.29 ± 0.2 |
| GGCAAGCAAUAUUACGCAUU | -0.374 ± 0.062 | 0.591 ± 0.081 |
| GGCAAGCAAUAUUACGCUGG | -3.31 ± 0.23 | -2.68 ± 0.28 |
| GGCAAGCAAUAUUACGGAAA | -1.55 ± 0.12 | -1.27 ± 0.13 |
| GGCAAGCAAUAUUACGGCGU | -0.154 ± 0.088 | 0.316 ± 0.12 |
| GGCAAGCAAUAUUACGGGCC | -2.85 ± 0.39 | – |
| GGCAAGCAAUAUUACGGUCG | -0.22 ± 0.072 | 0.553 ± 0.099 |
| GGCAAGCAAUAUUACGUAUC | -0.35 ± 0.063 | 0.0433 ± 0.083 |
